Where no end group is shown, it is not given here. [ ]: non-standard residue; d: D form. Formula III = not defined here; Aib = CC(C)(N)C(=O)O Bounds are passed on as bounds.

What all share (assay): cell-based or functional assay
Assay [1] addresses T1, human GLP-1 receptor (GLP-1R) (human, UniProt P43220 24-463).
Assay [2] has as its target T1, human GLP-1 receptor (GLP-1R). This is another data set of the same source.
The target of assay [3] is human glucagon receptor (GCGR) (human, UniProt P47871 26-477).

T1 sequence (P43220 24-463): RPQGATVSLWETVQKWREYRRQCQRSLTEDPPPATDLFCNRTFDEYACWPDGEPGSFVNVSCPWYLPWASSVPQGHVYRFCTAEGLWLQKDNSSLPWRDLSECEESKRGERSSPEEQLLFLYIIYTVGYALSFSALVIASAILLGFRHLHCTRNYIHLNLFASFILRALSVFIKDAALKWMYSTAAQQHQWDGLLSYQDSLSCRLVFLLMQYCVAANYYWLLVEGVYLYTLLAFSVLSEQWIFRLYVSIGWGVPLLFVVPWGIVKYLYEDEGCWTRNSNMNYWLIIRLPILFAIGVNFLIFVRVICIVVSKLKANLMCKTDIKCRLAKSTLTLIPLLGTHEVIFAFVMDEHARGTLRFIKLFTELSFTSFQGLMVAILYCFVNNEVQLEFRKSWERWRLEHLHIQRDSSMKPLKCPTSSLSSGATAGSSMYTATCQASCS

B1: Compound A99 (peptide)
peptide: YSHGTFTSDYSKYLD[Aib]KRAQEFV[Aib]WLEDEPSSGAPPPS-OH
modifications: N-terminus assumed
SMILES: CC(C)C[C@H](NC(=O)[C@H](Cc1ccc(O)cc1)NC(=O)[C@H](CCCCN)NC(=O)[C@H](CO)NC(=O)[C@H](Cc1ccc(O)cc1)NC(=O)[C@H](CC(=O)O)NC(=O)[C@H](CO)NC(=O)[C@@H](NC(=O)[C@H](Cc1ccccc1)NC(=O)[C@@H](NC(=O)CNC(=O)[C@H](Cc1c[nH]cn1)NC(=O)[C@H](CO)NC(=O)[C@@H](N)Cc1ccc(O)cc1)[C@@H](C)O)[C@@H](C)O)C(=O)N[C@@H](CC(=O)O)C(=O)NC(C)(C)C(=O)N[C@@H](CCCCN)C(=O)N[C@@H](CCCNC(=N)N)C(=O)N[C@@H](C)C(=O)N[C@@H](CCC(N)=O)C(=O)N[C@@H](CCC(=O)O)C(=O)N[C@@H](Cc1ccccc1)C(=O)N[C@H](C(=O)NC(C)(C)C(=O)N[C@@H](Cc1c[nH]c2ccccc12)C(=O)N[C@@H](CC(C)C)C(=O)N[C@@H](CCC(=O)O)C(=O)N[C@@H](CC(=O)O)C(=O)N[C@@H](CCC(=O)O)C(=O)N1CCC[C@H]1C(=O)N[C@@H](CO)C(=O)N[C@@H](CO)C(=O)NCC(=O)N[C@@H](C)C(=O)N1CCC[C@H]1C(=O)N1CCC[C@H]1C(=O)N1CCC[C@H]1C(=O)N[C@@H](CO)C(=O)O)C(C)C
Take B1: in assay [1], the “hGLP1 pEC50 (cAMP)” value is less than 9 pEC50.

B2: Compound A98 (peptide)
peptide: YSHGTFTSDYTRLLESKRAQEFVKWLEDEPSSGAPPPS
As to B2, in assay [1], the “hGLP1 pEC50 (cAMP)” value was less than 9 pEC50.

B3: Compound B47 (peptide)
peptide: YSHGTFTSDYSKYLDK(Formula III)ARAQEFVKWLEDEPSSGAPPPS-NH2
modifications: reading uncertain
For the molecule B3, the “GLP-1R pEC 50” value in assay [2] is less than 6 pEC50. Moreover, the “GluR pEC 50” value in assay [3] came out at 10.8 pEC50.

B4: Compound A97 (peptide)
peptide: YSHGTFTSDYSKYLDAARAQEFVKWLEDEPSSGAPPPS
For B4, the “hGLP1 pEC50 (cAMP)” value in assay [1] was less than 9 pEC50.

B5: Compound B45 (peptide)
peptide: YSHGTFTSDYSKYLDSARAQEFVKWLEDEPSSK(Formula III)APPPS-NH2
modifications: reading uncertain
With B5, the “GLP-1R pEC 50” value in assay [2] is less than 6 pEC50. Further, in assay [3], the “GluR pEC 50” value is 9.8 pEC50.

B6: Compound B48 (peptide)
peptide: YSHGTFTSDK(Formula III)SKYLDSARAQEFVKWLEDEPSSGAPPPS-NH2
modifications: reading uncertain
As for B6, the “GLP-1R pEC 50” value in assay [2] is less than 6 pEC50. Moreover, in assay [3], the “GluR pEC 50” value was 9.2 pEC50.

B7: Compound A100 (peptide)
peptide: YSHGTFTSDYSKYLD[Aib]KRAQEFV[Aib]WLEDE-OH
modifications: N-terminus assumed
SMILES: CC(C)C[C@H](NC(=O)[C@H](Cc1ccc(O)cc1)NC(=O)[C@H](CCCCN)NC(=O)[C@H](CO)NC(=O)[C@H](Cc1ccc(O)cc1)NC(=O)[C@H](CC(=O)O)NC(=O)[C@H](CO)NC(=O)[C@@H](NC(=O)[C@H](Cc1ccccc1)NC(=O)[C@@H](NC(=O)CNC(=O)[C@H](Cc1c[nH]cn1)NC(=O)[C@H](CO)NC(=O)[C@@H](N)Cc1ccc(O)cc1)[C@@H](C)O)[C@@H](C)O)C(=O)N[C@@H](CC(=O)O)C(=O)NC(C)(C)C(=O)N[C@@H](CCCCN)C(=O)N[C@@H](CCCNC(=N)N)C(=O)N[C@@H](C)C(=O)N[C@@H](CCC(N)=O)C(=O)N[C@@H](CCC(=O)O)C(=O)N[C@@H](Cc1ccccc1)C(=O)N[C@H](C(=O)NC(C)(C)C(=O)N[C@@H](Cc1c[nH]c2ccccc12)C(=O)N[C@@H](CC(C)C)C(=O)N[C@@H](CCC(=O)O)C(=O)N[C@@H](CC(=O)O)C(=O)N[C@@H](CCC(=O)O)C(=O)O)C(C)C
As for B7, the “hGLP1 pEC50 (cAMP)” value in assay [1] was less than 9 pEC50.

B8: Compound B46 (peptide)
peptide: YSHGTFTSDYSKYLDSARAQEFVK(Formula III)WLEDEPSSGAPPPS-NH2
modifications: reading uncertain
For the molecule B8, in assay [2], the “GLP-1R pEC 50” value was less than 6 pEC50. The “GluR pEC 50” value in assay [3] was determined as 9.5 pEC50.

Values taken from patent publication US20180009871A1 (INTARCIA THERAPEUTICS, published 2018).
